# Measurements: paper PMC7542595
# Like-named read-outs stand apart in the source and are kept apart here.
# What was measured:
# Test in all cases: fluorescence polarisation
# [1] = molecular target: ERα-ctp (1), N-fluorescein-labeled C-terminal hexaphosphopeptide of ERα
# [2] = molecular target: GpIBα-ctp (3), N-fluorescein-labeled C-terminal hexaphosphopeptide of GpIBα
# [3] = molecular target: Task3-ctp (2), N-fluorescein-labeled C-terminal hexaphosphopeptide of Task3
# [4] = molecular target: GpIBα-ctp (3), N-fluorescein-labeled C-terminal hexaphosphopeptide of GpIBα; remark: listed apart in the source
# [5] = molecular target: Task3-ctp (2), N-fluorescein-labeled C-terminal hexaphosphopeptide of Task3; remark: listed apart in the source
# [6] = molecular target: ERα-ctp (1), N-fluorescein-labeled C-terminal hexaphosphopeptide of ERα; remark: listed apart in the source
Molecule,Kd [1] [nM],Kd [2] [nM],Kd [3] [nM],Kd [4] [nM],Kd [5] [nM],Kd [6] [nM]
human 14-3-3β (from UniProt P31946 1-246) (natural protein),720,18000,2400,870,–,–
human 14-3-3ε (from UniProt P62258 1-255) (natural protein),3400,28000,6000,1700,160,–
human 14-3-3ζ (from UniProt P63104 1-245) (natural protein),1500,20000,1300,–,–,–
human 14-3-3τ (natural protein) MEKTELIQKAKLAEQAERYDDMATCMKAVTEQGAELSNEERNLLSVAYKNVVGGRRSAWRVISSIEQKTDTSDKKLQLIKDYREKVESELRSICTTVLELLDKYLIANATNPESKVFYLKMKGDYFRYLAEVACGDDRKQTIDNSQGAYQEAFDISKKEMQPTHPIRLGLALNFSVFYYEILNNPELACTLAKTAFDEAIAELDTLNEDSYKDSTLIMQLLRDNLTLWTSDSAGEECDAAEGAEN,1100,20000,2200,–,–,130
human 14-3-3σ (natural protein) MERASLIQKAKLAEQAERYEDMAAFMKGAVEKGEELSCEERNLLSVAYKNVVGGQRAAWRVLSSIEQKSNEEGSEEKGPEVREYREKVETELQGVCDTVLGLLDSHLIKEAGDAESRVFYLKMKGDYYRYLAEVATGDDKKRIIDSARSAYQEAMDISKKEMPPTNPIRLGLALNFSVFHYEIANSPEEAISLAKTTFDEAMADLHTLSEDSYKDSTLIMQLLRDNLTLWTADNAGEEGGEAPQEPQS,6600,47000,2100,–,–,–
